Results from the supplement of paper PMC5998384.

How the values were obtained:
HeLa Kyoto [1] = experiment: solubility in G1/S (NP-40 vs SDS abundance) (log2 ratio); higher = more soluble; details: cell cycle stage: G1/S
HeLa Kyoto [2] = experiment: melting temperature (median over replicates), in situ; higher = more thermally stable
HeLa Kyoto [3] = experiment: solubility change mitosis vs G1/S (difference of NP-40 vs SDS log2 ratios) (log2 ratio difference); higher = more soluble in mitosis
HeLa Kyoto [4] = experiment: thermal stability score vs G1/S (z-score of summed log2 fold changes over temperatures); higher = more thermally stable than in G1/S
[5] = cell cycle stage: early G1 (4.5 h after nocodazole release)
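Wherever melting temperature (median over replicates), in situ is given: HeLa Kyoto cells synchronized by double thymidine or nocodazole block, proteins quantified by TMT10plex mass spectrometry, three independent biological replicates.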
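Wherever solubility change mitosis vs G1/S (difference of NP-40 vs SDS log2 ratios) is given: synchronized HeLa Kyoto cells (double thymidine block for G1/S, nocodazole release for mitosis), protein amounts in NP-40 versus SDS lysates quantified by mass spectrometry, three biological replicates.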
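Wherever solubility in G1/S (NP-40 vs SDS abundance) is given: HeLa Kyoto cells arrested at G1/S by double thymidine block, proteins quantified by TMT10plex mass spectrometry in mild NP-40 versus SDS extracts, three biological replicates.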
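Wherever thermal stability score vs G1/S (z-score of summed log2 fold changes over temperatures) is given: synchronized HeLa Kyoto cells, proteins quantified by TMT10plex mass spectrometry, three biological replicates, mitosis taken 0.5 h after nocodazole release, G1/S directly after double thymidine block.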

| Sequence | solubility in G1/S (log2) (HeLa Kyoto [1]) | melting temperature (HeLa Kyoto [2]; cell cycle stage: G1/S) | melting temperature (HeLa Kyoto [2]; cell cycle stage: mitosis) | solubility change mitosis (log2) (HeLa Kyoto [3]) | thermal stability score (HeLa Kyoto [4]; [5]) | thermal stability score (HeLa Kyoto [4]; cell cycle stage: mitosis) |
| --- | --- | --- | --- | --- | --- | --- |
| MAAAWGSSLTAATQRAVTPWPRGRLLTASLGPQARREASSSSPEAGEGQIRLTDSCVQRLLEITEGSEFLRLQVEGGGCSGFQYKFSLDTVINPDDRVFEQGGARVVVDSDSLAFVKGAQVDFSQELIRSSFQVLNNPQAQQGCSCGSSFSIKL [ISCA2] | 0.276 | 51.6 °C | 53.4 °C | -0.123 | -1.26 | -2.06 |
| MAAAYLDPNLNHTPNSSTKTHLGTGMERSPGAMERVLKVFHYFESNSEPTTWASIIRHGDATDVRGIIQKIVDSHKVKHVACYGFRLSHLRSEEVHWLHVDMGVSSVREKYELAHPPEEWKYELRIRYLPKGFLNQFTEDKPTLNFFYQQVKSDYMLEIADQVDQEIALKLGCLEIRRSYWEMRGNALEKKSNYEVLEKDVGLKRFFPKSLLDSVKAKTLRKLIQQTFRQFANLNREESILKFFEILSPVYRFDKECFKCALGSSWIISVELAIGPEEGISYLTDKGCNPTHLADFTQVQTIQYSNSEDKDRKGMLQLKIAGAPEPLTVTAPSLTIAENMADLIDGYCRLVNGTSQSFIIRPQKEGERALPSIPKLANSEKQGMRTHAVSVSETDDYAEIIDEEDTYTMPSTRDYEIQRERIELGRCIGEGQFGDVHQGIYMSPENPALAVAIKTCKNCTSDSVREKFLQEALTMRQFDHPHIVKLIGVITENPVWIIMELCTLGELRSFLQVRKYSLDLASLILYAYQLSTALAYLESKRFVHRDIAARNVLVSSNDCVKLGDFGLSRYMEDSTYYKASKGKLPIKWMAPESINFRRFTSASDVWMFGVCMWEILMHGVKPFQGVKNNDVIGRIENGERLPMPPNCPPTLYSLMTKCWAYDPSRRPRFTELKAQLSTILEEEKAQQEERMRMESRRQATVSWDSGGSDEAPPKPSRPGYPSPRSSEGFYPSPQHMVQTNHYQVSGYPGSHGITAMAGSIYPGQASLLDQTDSWNHRPQEIAMWQPNVEDSTVLDLRGIGQVLPTHLMEERLIRQQQEMEEDQRWLEKEERFLKPDVRLSRGSIDREDGSLQGPIGNQHIYQPVGKPDPAAPPKKPPRPGAPGHLGSLASLSSPADSYNEGVKLQPQEISPPPTANLDRSNDKVYENVTGLVKAVIEMSSKIQPAPPEEYVPMVKEVGLALRTLLATVDETIPLLPASTHREIEMAQKLLNSDLGELINKMKLAQQYVMTSLQQEYKKQMLTAAHALAVDAKNLLDVIDQARLKMLGQTRPH [PTK2] | -0.0233 | 53 °C | 53.2 °C | -0.0593 | 0.562 | 0.0674 |
| MAACEGRRSGALGSSQSDFLTPPVGGAPWAVATTVVMYPPPPPPPHRDFISVTLSFGENYDNSKSWRRRSCWRKWKQLSRLQRNMILFLLAFLLFCGLLFYINLADHWKALAFRLEEEQKMRPEIAGLKPANPPVLPAPQKADTDPENLPEISSQKTQRHIQRGPPHLQIRPPSQDLKDGTQEEATKRQEAPVDPRPEGDPQRTVISWRGAVIEPEQGTELPSRRAEVPTKPPLPPARTQGTPVHLNYRQKGVIDVFLHAWKGYRKFAWGHDELKPVSRSFSEWFGLGLTLIDALDTMWILGLRKEFEEARKWVSKKLHFEKDVDVNLFESTIRILGGLLSAYHLSGDSLFLRKAEDFGNRLMPAFRTPSKIPYSDVNIGTGVAHPPRWTSDSTVAEVTSIQLEFRELSRLTGDKKFQEAVEKVTQHIHGLSGKKDGLVPMFINTHSGLFTHLGVFTLGARADSYYEYLLKQWIQGGKQETQLLEDYVEAIEGVRTHLLRHSEPSKLTFVGELAHGRFSAKMDHLVCFLPGTLALGVYHGLPASHMELAQELMETCYQMNRQMETGLSPEIVHFNLYPQPGRRDVEVKPADRHNLLRPETVESLFYLYRVTGDRKYQDWGWEILQSFSRFTRVPSGGYSSINNVQDPQKPEPRDKMESFFLGETLKYLFLLFSDDPNLLSLDAYVFNTEAHPLPIWTPA [MAN1B1] | 0.19 | 51.6 °C | 52.1 °C | -0.189 | 0.594 | 0.346 |
